Reference: patent US20200241008

T1: indicator molecule containing the cleavable sequence (GPQGIFGQ) with a terminal biotin group connected via a polyethylene glycol spacer/linker, intact
T1 chain: GPQGIFGQ

B1: MMP11 (Enzo) (protein)
chain: FVLSGGRWEKTDLTYRILRFPWQLVQEQVRQTMAEALKVWSDVTPLTFTEVHEGRADIMIDFARYWHGDDLPFDGPGGILAHAFFPKTHREGDVHFDYDETWTIGDDQGTDLLQVAAHEFGHVLGLQHTTAAKALMSAFYTFRYPLSLSPDDCRGVQHLYGQPWPTVTSRTPALG
B2: MMP1 (Enzo) (protein)
chain: FVLTEGNPRWEQTHLTYRIENYTPDLPRADVDHAIEKAFQLWSNVTPLTFTKVSEGQADIMISFVRGDHRDNSPFDGPGGNLAHAFQPGPGIGGDAHFDEDERWTNNFREYNLHRVAAHELGHSLGLSHSTDIGALMYPSYTFSGDVQLAQDDIDGIQAIYGRSQNPVQP
B3: MMP7 (Enzo) (protein)
chain: YSLFPNSPKWTSKVVTYRIVSYTRDLPHITVDRLVSKALNMWGKEIPLHFRKVVWGTADIMIGFARGAHGDSYPFDGPGNTLAHAFAPGTGLGGDAHFDEDERWTDGSSLGINFLYAATHELGHSLGMGHSSDPNAVMYPTYGNGDPQNFKLSQDDIKGIQKLYGKRSNSRKK
B4: MMP12 (Enzo) (protein)
chain: GPVWRKHYITYRINNYTPDMNREDVDYAIRKAFQVWSNVTPLKFSKINTGMADILVVFARGAHGDFHAFDGKGGILAHAFGPGSGIGGDAHFDEDEFWTTHSGGTNLFLTAVHEIGHSLGLGHSSDPKAVMFPTYKYVDINTFRLSADDIRGIQSLYG

Target: T1, indicator molecule containing the …

Q: B1 was tested. Which reader value at 0.5 µg/ml MMP (lateral flow) did it give?
A: 280 reader units

Q: With B2 as the protein, how does the reader value at 0.5 µg/ml MMP (lateral flow) read?
A: 478 reader units

Q: For B3, which reader value at 0.5 µg/ml MMP (lateral flow) is on record?
A: 373 reader units

Q: B4 was tested. Which reader value at 0.5 µg/ml MMP (lateral flow) did it give?
A: 1250 reader units
